According to patent US20110064653A1 (IMMUNOMEDICS, published 2011):
Read-outs that look alike come from different tables or passages of the source. One block for each molecule: values may come before it.

Assays:
[1] = biological target: CEACAM6 (NCA-90) on cells (human) (UniProt P40199); assay: cell-based or functional assay
[2] = biological target: CEACAM5/CEACAM6; assay: cell-based or functional assay
[3] = biological target: T1, carcinoembryonic antigen (CEA) (human, UniProt P06731 35-685); assay: 125I-CEA radioimmunoassay
T1 construct: also called CEACAM5; CD66e
T1 sequence (looked up): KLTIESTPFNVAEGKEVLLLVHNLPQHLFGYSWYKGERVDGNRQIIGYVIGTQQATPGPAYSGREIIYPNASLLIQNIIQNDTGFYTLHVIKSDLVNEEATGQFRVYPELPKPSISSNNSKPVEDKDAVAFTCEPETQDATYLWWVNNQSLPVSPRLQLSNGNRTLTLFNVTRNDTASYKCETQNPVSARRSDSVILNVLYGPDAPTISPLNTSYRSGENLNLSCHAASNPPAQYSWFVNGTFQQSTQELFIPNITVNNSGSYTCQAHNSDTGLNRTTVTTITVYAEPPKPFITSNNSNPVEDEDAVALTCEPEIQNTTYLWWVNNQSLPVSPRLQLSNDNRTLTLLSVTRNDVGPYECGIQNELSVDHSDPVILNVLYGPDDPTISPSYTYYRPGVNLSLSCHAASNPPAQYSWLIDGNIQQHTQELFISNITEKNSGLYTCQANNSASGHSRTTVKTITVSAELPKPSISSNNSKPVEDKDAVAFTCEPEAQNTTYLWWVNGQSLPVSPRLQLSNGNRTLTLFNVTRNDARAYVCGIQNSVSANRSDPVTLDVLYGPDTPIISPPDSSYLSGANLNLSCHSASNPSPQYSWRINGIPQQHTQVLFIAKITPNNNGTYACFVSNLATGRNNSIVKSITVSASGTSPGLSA

[4] = biological target: T1, carcinoembryonic antigen (CEA); assay: radioiodinated MAb (100 ng/ml) with increasing CEA; free versus bound antibody by HPLC sizing gel
[5] = biological target: CEACAM5/CEACAM6; assay: cell-based or functional assay; remark: listed apart in the source
[6] = biological target: T1, carcinoembryonic antigen (CEA); assay: competitive binding assay on CEA; unlabeled competitor varied against HRP-labeled murine MN-15
[7] = biological target: T2, NCA-95 on HeLa cells (UniProt P31997 35-320, limits assumed); assay: indirect flow cytometry on HeLa-CGM6/1 transfectants
T2 construct: whole, on cells; also called HeLa-CGM6/1
T2 sequence (looked up): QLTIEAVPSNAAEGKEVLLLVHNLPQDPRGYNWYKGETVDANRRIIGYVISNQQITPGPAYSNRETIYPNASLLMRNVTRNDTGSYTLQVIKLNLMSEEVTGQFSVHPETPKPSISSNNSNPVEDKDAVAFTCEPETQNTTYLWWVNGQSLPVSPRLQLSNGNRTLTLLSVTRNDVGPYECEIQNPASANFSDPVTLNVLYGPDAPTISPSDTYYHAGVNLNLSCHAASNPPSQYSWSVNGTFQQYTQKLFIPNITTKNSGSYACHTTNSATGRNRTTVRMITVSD
Experimental: The reacitivty of antibodies was tested by flow cytometry with a Becton-Dickinson FACSCAN®. The biotinylated second antibody was directed against mouse IgG and was detected by a streptavidin/phycoerythrin conjugate. Tests were carried out with antibodies at 1/50 dilution of 1 mg/ml stocks.
The antibodies MN-3 and MN-15 were tested for recognition of HeLa cells transfected with cDNA coding for CEA (HeLa-CEA2), NCA-90 (HeLa-KNC6/S44) and NCA-95 (HeLa-CGM6/1). As a negative control, HeLa cells transfected with the plasmid pSV2-Neo (control HeLa cells, HeLa-NeoA) were used. In addition to the antibodies MN-3 and MN-15, three control antibodies were included: […]

reduction of cell invasion, BXPC3, collagen-based invasion assay [1]: 0%
reduction of cell invasion, CaPAN-1, collagen-based invasion assay [1]: 55%
reduction of cell invasion, LS174T, collagen-based invasion assay [1]: 3%
reduction of cell invasion, MCF-7, collagen-based invasion assay [1]: 47%
reduction of cell invasion, ZR75-30, collagen-based invasion assay [1]: 59%
adhesion-inhibition of MCF-7, HT-29, BT-20 and Moser cells to endothelial cells [2]: 49 to 58%
Molecule: MN-3 Fab′

decrease of adhesion of CaPAN-1 cells to fibronectin [5]: 47%
decrease of adhesion of MCF-7 cells to fibronectin [5]: 29%
decrease of adhesion of MDA-468 cells to fibronectin [5]: 51%
IC50 (read off the curve) [6]: ~5 nM
binding result [7]: binds
B3: murine MN-15 antibody (antibody, mouse IgG1, V domains shown)
VH: EVRLVESGGGLVQGPGSLRLSCAASGFALTDYYMSWVRQSPGKTLEWLGFIANKANGHTTDYSPSVKGRFTISRDNSQTILYLQMNTLRTEDSATYYCARDMGIRWNFDVWGQGTTVTVSS
VL: DIQLTQSPAIMSASPGEKVTMTCSASSRVSYIHWYQQKSGTSPKRWIYGTSTLASGVPARFSGSGSGTSYSLTISSMEAEDAATYYCQQWSYNPPTFGAGTKLELKR
notes: also called mMN-15; MN-15 IgG

The remaining lines, values behind:

Molecule: NP-4 antibody
percent of radioiodinated CEA bound [3]: < 50%
CEA concentration for 50% complexation of the antibody [4]: 1 to 2 µg/mL

B1: MN-15 Fab′ (Fab, V domains shown)
VL: B3 VL
VH: B3 VH
adhesion-inhibition of MCF-7, HT-29, BT-20 and Moser cells to endothelial cells [5]: 49 to 58%

B2: chimeric MN-15 antibody (antibody, V domains shown)
VH: B3 VH
VL: B3 VL
IC50 (read off the curve) [6]: ~5 nM

B4: humanized MN-15 antibody (antibody, V domains shown)
VH: QVQLVESGGGVVQPGRSLRLSCSSSGFALTDYYMSWVRQAPGKGLEWLGFIANKANGHTTDYSPSVKGRFTISRDNSKNTLFLQMDSLRPEDTGVYFCARDMGIRWNFDVWGQGTPVTVSS
VL: DIQLTQSPSSLSASVGDRVTMTCSASSRVSYIHWYQQKPGKAPKRWIYGTSTLASGVPARFSGSGSGTDFTFTISSLQPEDIATYYCQQWSYNPPTFGQGTKVEIKR
notes: Humanized variable regions (REI VK and KOL VH frameworks) cloned alongside human IgG1 constant region genes; also called hMN-15
IC50 (read off the curve) [6]: ~5 nM
